{"source": "paper PMC6353796", "about": "“Thermostable Branched-Chain Amino Acid Transaminases From the Archaea Geoglobus acetivorans and Archaeoglobus fulgidus: Biochemical and Structural Characterization” (Frontiers in Bioengineering and Biotechnology, 2019)", "proteins": {"B1": {"name": "AF0933, branched-chain amino acid transaminase (BCAT) from Archaeoglobus fulgidus (enzyme)", "chain": "MLYVYMDGEFVPENEAKVSIFDHGFLYGDGVFEGIRAYNGRVFRLKEHIDRLYDSAKAIDLEIPITKEEFMEIILETLRKNNLRDAYIRPIVTRGIGDLGLDPRKCQNPSIIVITKPWGKLYGDLYEKGLTAITVAVRRNSFDALPPNIKSLNYLNNILAKIEANAKGGDEAIFLDRNGYVSEGSGDNIFVVKNGAITTPPTINNLRGITREAVIEIINRLGIPFKETNIGLYDLYTADEVFVTGTAAEIAPIVVIDGRKIGDGKPGEITRKLMEEFSKLTESEGVPIYE", "modifications": "PLP covalently bound (Schiff base, internal aldimine) to Lys150", "notes": "Class IV branched-chain amino acid transaminase AF0933 of Archaeoglobus fulgidus; subunit 32.4 kDa, 290 amino acids; synthetic gene optimised for E. coli; Mainly homo-hexamer in solution with a small dimeric fraction; hexamer in the crystal; also called AF0933_holo; AF0933_GABC; source: E. coli Rosetta (DE3)-pLysS (pLATE51-AF0933), purified (heat step 70°C, Ni-NTA, Superdex 200)"}}, "target": "the molecule itself", "experiment": "SEC; AF0933 on Superdex 200 HiLoad (1.6 x 60 cm) in 50 mM Tris-HCl, pH 7.5, 500 mM NaCl, 0.05 mM PLP; native molecular mass by size exclusion", "note": "Values joined by “and” are separate entries in the source; they are usually repeats but may differ in a detail not shown here. Equal entries are not always repeated."}
{"protein": "B1", "values": [{"measurement": "stoichiometry N", "value": "6 and 2"}]}
